Values joined by “and” are separate entries in the source; they are usually repeats but may differ in a detail not shown here. Identical values can stand only once.
Experiments:
[1] = target: ECF module (EcfA_K122C, EcfA', EcfT) of the C-sensor, cysteine-less background, fluorophore-labelled (Lactobacillus delbrueckii); experiment: FRET or BRET; single-molecule FRET, TIRF; labelled complex in immobilised liposomes (protein to lipid 1:10.000) with 10 mM Mg-ATP outside (or on both sides), with or without 10 µM vitamin B12 in the lumen; 50 mM KPi pH 7.5, 150 mM NaCl; 90 s recordings, 200 ms frames
[2] = target: ECF module (EcfA_K122C, EcfA', EcfT) of the C-sensor, cysteine-less background, fluorophore-labelled (Lactobacillus delbrueckii); experiment: FRET or BRET; single-molecule FRET, TIRF; labelled complex reconstituted in liposomes (E. coli polar lipids:PC:DOPE-biotin, protein to lipid 1:10.000) immobilised by biotin-neutravidin; 50 mM KPi pH 7.5, 150 mM NaCl; apo, also with Mg-AMP-PNP, Mg-ADP or 10 µM vitamin B12 alone; 90 s recordings, 200 ms frames

For “CbrT_A182C (S-component of the C-sensor, cysteine-less background, fluorophore-labelled) (natural protein)”, the half-life to the first dissociation event after ATP addition (ATPout + B12in) [1] was 7 s, the half-life to the first dissociation event after ATP addition (ATPout) [1] was 10 s and the mean dwell time of the associated state (10 mM Mg-ATP outside; with or without vitamin B12, not told which) [1] was 7.9 s and 8.7 s. For the same substance, the mean dwell time of the dissociated state (10 mM Mg-ATP outside, with and without vitamin B12) [1] was 20 s, the percent of dynamic traces (association/dissociation transitions), 10 mM Mg-ATP outside [1] was 22.1% and the percent of dynamic traces (association/dissociation transitions), ATP outside and 10 µM vitamin B12 in the lumen [1] was 18.7%. The percent of dynamic traces (association/dissociation transitions), Mg-ATP on both sides of the membrane [1] was 13.2%, the percent of traces static at the low-FRET value 0.08 (dissociated), 10 mM Mg-ATP outside [1] was 19.6% and the percent of recorded traces with a dissociation (apo and AMP-PNP conditions) [2] was 1%.
